Measurements taken from patent US20050095678A1.

Target: rat α1B+β1b calcium channel (N-type calcium channel α1B subunit coexpressed with β1b subunit) (rat) (UniProt Q02294)
Assay: cell-based or functional assay

rat α1B+β1b calcium channel (N-type calcium channel α1B subunit coexpressed with β1b subunit) (rat), sequence (Q02294 whole entry, chain 1 of 2): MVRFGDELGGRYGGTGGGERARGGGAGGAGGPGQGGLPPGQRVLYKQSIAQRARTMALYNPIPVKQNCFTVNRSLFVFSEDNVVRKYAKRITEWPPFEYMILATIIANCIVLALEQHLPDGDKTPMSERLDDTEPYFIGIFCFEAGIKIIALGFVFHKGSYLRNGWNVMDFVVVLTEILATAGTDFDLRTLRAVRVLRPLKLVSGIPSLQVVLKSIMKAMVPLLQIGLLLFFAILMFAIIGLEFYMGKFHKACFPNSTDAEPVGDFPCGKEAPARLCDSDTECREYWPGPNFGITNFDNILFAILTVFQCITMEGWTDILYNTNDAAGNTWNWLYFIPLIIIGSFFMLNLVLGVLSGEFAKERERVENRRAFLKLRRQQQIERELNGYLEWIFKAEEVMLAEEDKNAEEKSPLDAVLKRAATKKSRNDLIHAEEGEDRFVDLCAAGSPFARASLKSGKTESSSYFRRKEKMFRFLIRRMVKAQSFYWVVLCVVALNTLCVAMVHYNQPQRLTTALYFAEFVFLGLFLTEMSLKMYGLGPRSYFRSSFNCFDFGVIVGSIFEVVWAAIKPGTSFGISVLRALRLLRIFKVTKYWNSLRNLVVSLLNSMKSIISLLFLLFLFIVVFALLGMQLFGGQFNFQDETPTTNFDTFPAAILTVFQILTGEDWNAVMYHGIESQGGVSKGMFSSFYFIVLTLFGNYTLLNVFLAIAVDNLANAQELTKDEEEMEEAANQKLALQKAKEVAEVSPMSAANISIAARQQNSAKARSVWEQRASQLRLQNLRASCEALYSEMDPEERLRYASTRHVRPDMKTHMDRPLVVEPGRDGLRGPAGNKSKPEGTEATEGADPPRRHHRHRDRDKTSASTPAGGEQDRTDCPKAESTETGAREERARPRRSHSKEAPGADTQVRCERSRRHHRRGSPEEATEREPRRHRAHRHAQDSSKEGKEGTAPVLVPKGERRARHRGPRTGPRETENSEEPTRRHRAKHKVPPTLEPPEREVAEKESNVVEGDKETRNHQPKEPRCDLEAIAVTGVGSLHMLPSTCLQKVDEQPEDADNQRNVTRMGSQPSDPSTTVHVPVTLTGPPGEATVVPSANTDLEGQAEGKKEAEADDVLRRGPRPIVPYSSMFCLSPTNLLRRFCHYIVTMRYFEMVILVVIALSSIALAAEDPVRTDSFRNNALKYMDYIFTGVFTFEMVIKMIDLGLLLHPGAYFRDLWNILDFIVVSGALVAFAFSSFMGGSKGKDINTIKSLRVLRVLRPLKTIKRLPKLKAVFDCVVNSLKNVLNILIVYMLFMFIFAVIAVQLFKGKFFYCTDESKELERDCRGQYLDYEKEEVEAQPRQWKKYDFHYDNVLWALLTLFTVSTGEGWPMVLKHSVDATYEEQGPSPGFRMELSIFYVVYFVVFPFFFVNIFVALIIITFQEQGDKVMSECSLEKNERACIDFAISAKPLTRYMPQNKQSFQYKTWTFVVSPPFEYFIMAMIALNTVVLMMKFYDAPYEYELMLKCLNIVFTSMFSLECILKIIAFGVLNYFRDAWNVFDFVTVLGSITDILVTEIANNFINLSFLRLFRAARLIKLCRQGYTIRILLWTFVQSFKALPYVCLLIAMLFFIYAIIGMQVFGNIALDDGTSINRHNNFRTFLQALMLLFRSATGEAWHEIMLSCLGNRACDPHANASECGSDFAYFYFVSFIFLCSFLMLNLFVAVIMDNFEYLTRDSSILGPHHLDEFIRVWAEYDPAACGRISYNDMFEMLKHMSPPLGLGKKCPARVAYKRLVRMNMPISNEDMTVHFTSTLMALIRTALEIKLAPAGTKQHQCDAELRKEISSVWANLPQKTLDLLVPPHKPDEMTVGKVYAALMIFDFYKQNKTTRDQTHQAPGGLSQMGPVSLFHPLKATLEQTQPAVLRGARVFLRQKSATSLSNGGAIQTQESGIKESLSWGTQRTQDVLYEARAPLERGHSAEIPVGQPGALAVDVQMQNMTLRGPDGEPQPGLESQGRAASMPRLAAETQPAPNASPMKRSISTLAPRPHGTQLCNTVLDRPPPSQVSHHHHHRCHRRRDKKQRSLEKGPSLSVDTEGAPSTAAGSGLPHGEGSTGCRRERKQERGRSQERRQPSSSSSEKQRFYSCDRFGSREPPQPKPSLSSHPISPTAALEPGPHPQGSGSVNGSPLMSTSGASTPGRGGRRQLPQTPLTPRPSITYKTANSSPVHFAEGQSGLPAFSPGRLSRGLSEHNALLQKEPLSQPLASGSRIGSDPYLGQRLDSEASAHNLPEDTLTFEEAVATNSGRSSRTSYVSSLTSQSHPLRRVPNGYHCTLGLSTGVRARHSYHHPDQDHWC
rat α1B+β1b calcium channel (N-type calcium channel α1B subunit coexpressed with β1b subunit) (rat), sequence (P54283 whole entry, chain 2 of 2, further chain): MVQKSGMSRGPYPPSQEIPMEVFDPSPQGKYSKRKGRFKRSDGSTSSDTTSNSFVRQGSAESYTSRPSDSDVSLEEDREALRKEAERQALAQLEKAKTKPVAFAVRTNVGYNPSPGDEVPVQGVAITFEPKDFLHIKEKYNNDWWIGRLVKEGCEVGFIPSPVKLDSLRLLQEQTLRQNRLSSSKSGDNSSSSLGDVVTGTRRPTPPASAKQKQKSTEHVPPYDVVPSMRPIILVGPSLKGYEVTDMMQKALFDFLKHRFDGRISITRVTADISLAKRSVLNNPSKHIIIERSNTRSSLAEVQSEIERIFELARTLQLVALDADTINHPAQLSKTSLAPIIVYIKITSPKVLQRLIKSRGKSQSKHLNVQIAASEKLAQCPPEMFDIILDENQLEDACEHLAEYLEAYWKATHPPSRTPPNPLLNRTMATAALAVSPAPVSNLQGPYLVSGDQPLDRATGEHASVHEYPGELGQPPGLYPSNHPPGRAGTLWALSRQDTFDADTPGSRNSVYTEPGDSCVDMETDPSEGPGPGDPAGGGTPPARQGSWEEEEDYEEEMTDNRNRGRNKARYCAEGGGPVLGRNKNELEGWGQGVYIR

average current density (Ipeak/cell capacitance), whole-cell patch clamp, fold increase on coexpression: 4 fold
Substance: rat brain α2δ-2 calcium channel subunit (from UniProt Q8CFG6 19-1157)
